Biological target: T1, EphA2 (human, UniProt P29317 25-534, limits assumed)
T1 construct: also called biotinylated EphA2; soluble EphA2 antigen
Test: BIAcore, ovalbumin immobilised, antigens injected one after the other
Description: FIG. 36. […] The upper curve represents the binding activity of three distinct epitope binding domains present on multispecific epitope binding protein “P1” represented in FIG. […]. Soluble EB, EA, and EphA2 antigens were added to immobilized P1 and the relative binding was measured. The three distinct inflections referenced by the arrows corresponding to the three antigens indicates binding to the immobilized P1. Ovalbumin (bottom curve) was used as a negative control.
Methods: Triple-specific binding ability of P1 (FIG. 3D) was assessed by BIAcore by injecting the three antigens EB, EA and EphA2 sequentially over a P1-coated chip. When the P1 epitope had been saturated with the first antigen (EB), the second antigen (EA) was injected, followed by the injection of the third antigen (EphA2). Ovalbumin was used as a negative binding control.

T1 sequence (P29317 25-534 limits assumed): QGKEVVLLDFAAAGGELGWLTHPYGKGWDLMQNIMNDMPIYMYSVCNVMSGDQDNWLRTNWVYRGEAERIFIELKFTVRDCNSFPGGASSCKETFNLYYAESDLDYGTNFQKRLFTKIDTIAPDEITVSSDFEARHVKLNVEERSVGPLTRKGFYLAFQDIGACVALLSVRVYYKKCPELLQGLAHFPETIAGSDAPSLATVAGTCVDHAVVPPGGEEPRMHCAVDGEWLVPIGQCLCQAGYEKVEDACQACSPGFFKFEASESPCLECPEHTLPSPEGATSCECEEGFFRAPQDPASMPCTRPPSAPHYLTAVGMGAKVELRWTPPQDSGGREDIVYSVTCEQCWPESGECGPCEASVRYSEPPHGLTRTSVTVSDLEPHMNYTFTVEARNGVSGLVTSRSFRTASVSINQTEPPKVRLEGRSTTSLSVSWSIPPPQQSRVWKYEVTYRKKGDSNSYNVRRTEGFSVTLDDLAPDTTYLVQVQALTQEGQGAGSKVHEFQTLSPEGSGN

B1: Ovalbumin (other, UniProt P01012 2-386, looked up)
chain: GSIGAASMEFCFDVFKELKVHHANENIFYCPIAIMSALAMVYLGAKDSTRTQINKVVRFDKLPGFGDSIEAQCGTSVNVHSSLRDILNQITKPNDVYSFSLASRLYAEERYPILPEYLQCVKELYRGGLEPINFQTAADQARELINSWVESQTNGIIRNVLQPSSVDSQTAMVLVNAIVFKGLWEKAFKDEDTQAMPFRVTEQESKPVQMMYQIGLFRVASMASEKMKILELPFASGTMSMLVLLPDEVSGLEQLESIINFEKLTEWTSSNVMEERKIKVYLPRMKMEEKYNLTSVLMAMGITDVFSSSANLSGISSAESLKISQAVHAAHAEINEAGREVVGSAEAGVDAASVSEEFRADHPFLFCIKHIATNAVLFFGRCVSP
notes: also called immobilized ovalbumin
B1: no binding.
